Experimental findings from patent US20220089784A1 (University of California, published 2022) are described below.

Like-named read-outs stand apart in the source and are kept apart here.

The target of assay [1] is T1, BoNT/F1 (proteolytic BoNT/F) (Clostridium botulinum, UniProt A7GBG3 1-1278).
T1 sequence: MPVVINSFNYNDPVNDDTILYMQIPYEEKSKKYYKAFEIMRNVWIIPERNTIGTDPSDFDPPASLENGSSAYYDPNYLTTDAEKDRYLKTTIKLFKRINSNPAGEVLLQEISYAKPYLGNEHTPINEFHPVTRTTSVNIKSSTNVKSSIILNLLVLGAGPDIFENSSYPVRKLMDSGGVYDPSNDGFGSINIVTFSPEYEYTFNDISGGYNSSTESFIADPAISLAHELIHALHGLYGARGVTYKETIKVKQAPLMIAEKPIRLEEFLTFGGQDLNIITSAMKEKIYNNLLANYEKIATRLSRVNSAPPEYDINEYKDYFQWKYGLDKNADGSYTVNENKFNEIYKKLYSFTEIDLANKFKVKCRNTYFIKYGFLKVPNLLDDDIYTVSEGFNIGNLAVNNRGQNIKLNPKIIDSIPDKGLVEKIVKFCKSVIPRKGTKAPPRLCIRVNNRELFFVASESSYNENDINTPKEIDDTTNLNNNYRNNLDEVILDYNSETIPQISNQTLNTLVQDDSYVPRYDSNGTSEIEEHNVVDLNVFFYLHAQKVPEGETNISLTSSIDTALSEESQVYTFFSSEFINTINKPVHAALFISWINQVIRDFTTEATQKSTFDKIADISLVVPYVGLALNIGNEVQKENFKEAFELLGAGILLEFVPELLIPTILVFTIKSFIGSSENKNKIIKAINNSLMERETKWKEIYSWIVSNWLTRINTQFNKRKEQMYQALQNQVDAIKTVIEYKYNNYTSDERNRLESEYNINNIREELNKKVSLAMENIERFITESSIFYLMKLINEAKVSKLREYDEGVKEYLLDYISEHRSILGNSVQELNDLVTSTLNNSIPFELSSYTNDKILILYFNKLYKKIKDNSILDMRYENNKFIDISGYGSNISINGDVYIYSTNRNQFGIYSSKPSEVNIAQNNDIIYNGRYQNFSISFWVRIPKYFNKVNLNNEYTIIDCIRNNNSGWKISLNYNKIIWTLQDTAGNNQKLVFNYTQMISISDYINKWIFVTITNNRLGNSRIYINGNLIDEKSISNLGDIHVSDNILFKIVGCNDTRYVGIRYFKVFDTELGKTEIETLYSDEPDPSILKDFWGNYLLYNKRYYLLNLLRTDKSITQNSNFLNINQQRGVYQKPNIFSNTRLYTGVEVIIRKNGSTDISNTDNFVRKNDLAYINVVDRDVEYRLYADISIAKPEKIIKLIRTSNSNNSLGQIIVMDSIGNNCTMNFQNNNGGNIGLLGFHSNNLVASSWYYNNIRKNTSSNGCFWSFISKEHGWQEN
The experiment in a line: yeast scFv FACS.

Assay [2] deals with T1, BoNT/F1 (proteolytic BoNT/F). Description: yeast scFv FACS. This is another data set of the same source.
In assay [3] the target is T2, BoNT/B HC (C-terminal domain of the BoNT/B heavy chain, recombinant) (Clostridium botulinum, UniProt P10844 853-1291).
T2 sequence: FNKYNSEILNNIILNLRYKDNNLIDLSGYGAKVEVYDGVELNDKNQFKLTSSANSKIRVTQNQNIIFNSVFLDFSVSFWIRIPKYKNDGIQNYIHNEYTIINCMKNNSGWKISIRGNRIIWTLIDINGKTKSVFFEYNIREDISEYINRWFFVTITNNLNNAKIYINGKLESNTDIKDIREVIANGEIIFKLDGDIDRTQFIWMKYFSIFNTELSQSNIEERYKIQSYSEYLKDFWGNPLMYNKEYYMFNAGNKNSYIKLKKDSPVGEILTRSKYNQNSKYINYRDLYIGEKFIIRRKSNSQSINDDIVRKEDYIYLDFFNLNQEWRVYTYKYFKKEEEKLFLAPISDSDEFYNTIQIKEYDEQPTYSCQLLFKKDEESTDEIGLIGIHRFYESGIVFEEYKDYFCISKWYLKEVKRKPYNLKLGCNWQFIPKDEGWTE
The experiment in a line: yeast scFv FACS.

In another assay the target is T3, BoNT/B1 (Clostridium botulinum, UniProt P10844 2-1291).
T3 sequence: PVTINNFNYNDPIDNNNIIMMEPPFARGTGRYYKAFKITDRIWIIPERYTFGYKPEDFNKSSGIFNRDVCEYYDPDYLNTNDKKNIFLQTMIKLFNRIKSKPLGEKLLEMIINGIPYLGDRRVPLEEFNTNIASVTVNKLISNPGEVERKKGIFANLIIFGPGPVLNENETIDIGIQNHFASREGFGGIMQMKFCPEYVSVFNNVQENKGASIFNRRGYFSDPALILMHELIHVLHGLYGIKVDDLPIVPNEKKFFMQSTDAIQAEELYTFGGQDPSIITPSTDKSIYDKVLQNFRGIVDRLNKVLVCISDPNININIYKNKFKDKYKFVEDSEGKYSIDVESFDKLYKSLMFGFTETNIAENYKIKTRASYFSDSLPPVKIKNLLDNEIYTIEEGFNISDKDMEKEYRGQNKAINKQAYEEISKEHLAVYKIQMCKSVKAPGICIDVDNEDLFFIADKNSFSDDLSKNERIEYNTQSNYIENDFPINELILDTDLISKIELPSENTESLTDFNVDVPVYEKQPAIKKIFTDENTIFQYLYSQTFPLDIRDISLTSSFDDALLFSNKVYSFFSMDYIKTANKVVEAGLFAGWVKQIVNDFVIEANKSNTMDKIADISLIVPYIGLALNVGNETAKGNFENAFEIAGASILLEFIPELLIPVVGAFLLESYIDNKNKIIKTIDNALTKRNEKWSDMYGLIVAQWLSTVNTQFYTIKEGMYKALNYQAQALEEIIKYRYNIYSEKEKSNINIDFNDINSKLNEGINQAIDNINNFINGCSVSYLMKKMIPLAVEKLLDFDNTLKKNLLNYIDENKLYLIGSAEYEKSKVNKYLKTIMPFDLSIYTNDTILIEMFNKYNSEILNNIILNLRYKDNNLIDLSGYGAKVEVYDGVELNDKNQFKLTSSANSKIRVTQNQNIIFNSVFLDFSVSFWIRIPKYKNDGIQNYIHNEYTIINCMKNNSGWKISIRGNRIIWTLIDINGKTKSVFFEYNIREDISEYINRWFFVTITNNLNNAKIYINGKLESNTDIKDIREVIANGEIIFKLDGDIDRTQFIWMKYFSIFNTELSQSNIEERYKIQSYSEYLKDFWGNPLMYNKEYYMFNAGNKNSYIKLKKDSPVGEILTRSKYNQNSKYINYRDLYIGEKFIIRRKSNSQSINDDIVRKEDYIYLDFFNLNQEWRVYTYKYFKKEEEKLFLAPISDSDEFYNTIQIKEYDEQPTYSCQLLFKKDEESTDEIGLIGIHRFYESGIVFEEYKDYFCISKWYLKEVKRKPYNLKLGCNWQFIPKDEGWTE
The experiment in a line: yeast scFv FACS.

In assay [4] the target is BoNT/A light chain (recombinant) (Clostridium botulinum, UniProt P0DPI0 1-448). Description: KinExA, IgG.
BoNT/A light chain (recombinant), sequence (P0DPI0 1-448 limits assumed): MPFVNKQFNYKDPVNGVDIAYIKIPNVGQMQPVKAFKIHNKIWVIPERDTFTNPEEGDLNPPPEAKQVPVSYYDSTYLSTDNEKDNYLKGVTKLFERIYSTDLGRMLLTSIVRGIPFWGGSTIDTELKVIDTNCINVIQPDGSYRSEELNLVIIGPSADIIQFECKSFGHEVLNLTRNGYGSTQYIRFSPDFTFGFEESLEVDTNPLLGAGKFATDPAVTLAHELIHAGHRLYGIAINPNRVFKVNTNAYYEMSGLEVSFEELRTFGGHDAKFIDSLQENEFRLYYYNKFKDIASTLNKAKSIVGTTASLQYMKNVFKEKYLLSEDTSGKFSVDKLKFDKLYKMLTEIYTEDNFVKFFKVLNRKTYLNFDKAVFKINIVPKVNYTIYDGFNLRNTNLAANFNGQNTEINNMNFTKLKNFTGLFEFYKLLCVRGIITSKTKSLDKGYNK

B1: 29A2 scFv (scFv, V domains shown)
VH: EVQLLETGGDLVKPGGSLKLSCAASGFTFSYYGMSWVRQTPDKRLEWVATISSGGSYTYYPDSVKGRFTISRDNAKNTLYLQMSSLKSEDTAMYYCARRRVYYGSSYEDYWGQGTTLTVSS
VL: EIVLTQSPALMSASPGEKVTMTCSASSSVSYMYWYQQKPRSSPKPWIYLTSNLASGVPARFSGSGSGTSYSLTISSMEAEDAATYYCQQWSSNPYTFGGGTKLELK
For B1, the Kd in assay [1] and in assay [2] was 0.99 nM in each case.

B2: 30C8 scFv (scFv, V domains shown)
VH: EVQLKQSGTELVKPRSSVKMSCKASGYTFTDYWIGWTKQRPGHGLEWIGHIYPGGGYTNYNEKFKGKATLTADISSSAAYMQFSSPTSEDSAIYYCARIIMVESGDWYFDVWGTGTTLTVSS
VL: DIVLTQSPAIMSASLGEEITLTCSASSSVSYMHWYQQKSGTSPKLLIYSTSNLASGVPSRFSGSGSGTSYSLTISNMEAEDAATYYCQQWSSNPYTFGGGTKLELK
In the case of B2, the Kd in assay [1] and in assay [2] was 0.2 nM in each case.

B3: 29B8 scFv (scFv, V domains shown)
VH: EVQLQQSGAELVKPGASVKLSCTASGFNIKDYYMHWVKQRTEQGLEWIGRIDPEDGETKYAPKFQGKATITADTSSNTAYLQLSSLTSEDTAVYYCVSLLRSRTGYFDYWGQGTTLTVSS
VL: ENVLTQSPAIMSASPGEKVTMTCSASSSVSYMHWYQQKSGTSPKRWIYDTSNLAPGVPARFSGSGSGTSYSLTISSMEAEDAASYFCHQWSSYPYTFGGGTKLEIK
Take B3: the Kd in assay [1] and in assay [2] was 35.8 nM each time.

B4: 26D9 scFv (scFv)
scFv: DVQLQESGAELVKPGASVKLSCKASGFTFTDYWMHWVKQRPGQGLEWIGMIHPYNGDNNYHEKFKSKATLTVDKSSSTAYMQLSSLTTEDSAVYYCVRNDYDPYYYALDYWGQGTSLTVSAVDLKSGGSTSGSGKPGSGEGSSGSARQIVLTQSPAIMSASPGEKVTMSCRASSSVSYVYWYQQKPGSSPKPWIYRTSNLASGVPVRFSGSGSGTSYSLTISRVEAEDAATYYCQQWSSYPPTFGGGTKLEIK
notes: mouse
As for B4, the Kd turned out to be 0.089 nM in assay [3] and 0.582 nM with BoNT/B1.

B5: 26B2 scFv (scFv)
scFv: DVQLQESGPELVKPGASVKISCKASGYTFADYYINWVKQSHGKSLEWIGDFNPNNGDHSYNQKFKDKATLTVDESSNTAYMELRSLTSEDSAVYYCTREFYYYFDVWGTGTSVTVSSVDLKSGGSTSGSGKPGSGEGSSGSARDIEMTQTPAIMSASPGEKVTMTCSASSSVSSRYLHWYQQKSGASPKLWIYGTSNLASGVPARFSGSGSGTSYSLTISNVEAEDAATYYCQQYHSDPLTFGAGTKLEIK
notes: mouse
As to B5, the dissociation constant Kd in assay [3] was determined as 0.086 nM; with BoNT/B1, 0.276 nM.

B6: 28C11 scFv (scFv, V domains shown)
VH: EVQLQESGGDLVKPGGSLKLSCAASGFTFSYYGMSWVRQTPDKRLEWVATISSGGTYTYYPDSVKGRFTISRDNAKNTLYLQMSSLSSEDTAMYYCARRRSYDSVYWYFDVWGAGTSVTVSS
VL: DIVLTQSPAITAASLGQKVTITCSASSSGSYIHWYQQKSGTSPKLLIYRTSNLASGVPSRFSGSGSGTFYSLTISSVEAEDAADYFCHQWSSYPTFGGGTKLEIK
As to B6, the Kd in assay [1] and in assay [2] was 0.12 nM in each case.

B7: 28H4 scFv (scFv, V domains shown)
VH: EVQLQQSGAELAKPGASVKLSCKASGYTFTSYWMHWVKQGPGQGLEWIGAIYPGNSDTGYNQKFKGKAKLTAVTSASTAYMELSSLTNEDSAVYYCTRHGYYIYALDYWGQGTSVTVSS
VL: DIVLTQSPAIMSASPGEKVTMTCSASSSVSYMYWYQQKPGSSPKPWIYRTSNLASGVPVRFSGSGSGTSYSLTISSMEAEDAATYYCQQYHNFPPTFGGGTKLEIK
On to B7, for which the equilibrium dissociation constant (Kd) in assay [1] and in assay [2] was 20 nM each time.

B8: 6A2M IgG (antibody, V domains shown)
VH: EVQLQQSGAELVRPGTSVKLSCKSSGYTFTSDWMHWVIQRPGQGLEWIGVIDPSDSYTNYNQKFKGKATLTVDTSSSTAYMHLSSLTSEDSAVYYCARREGHYYGKAMDYWGQGTSVTVSS
VL: DIVMSQSPASLAVSLGQRATISCRASESVDYDGDSYMNWYQQKPGQPPKLLIYAASNLESGIPARFSGSGSGTDFTLNIHPVEEEDAATYYCLQSNEAPWTFGGGTKLEIK
notes: IgG converted from scFv
For the molecule B8, the dissociation constant (Kd) in assay [4] came out at 45 nM.

B9: 6A4M IgG (antibody, V domains shown)
VH: EVQLQQSGAELVRPGTSVKLSCKASGYTFTSYWMHWVKQRPGQGLEWIGVIDPSDSYTNYNQKFKGKATLTVDTSSSTAYMQLSSLASEDSAVYYCARYPGNRAMDYWGQGTSVTVSS
VL: DIVLTQSPASLAVSLGQRATISCRASESVDYDGDSYMNWYQQKPGQPPKLLIYAASNLESGIPARFSGSGSGTDFTLNIHPVEEEDAATYYCLQSNEAPWTFGGGTKLEIK
notes: IgG converted from scFv
As for B9, in assay [4], the equilibrium dissociation constant (Kd) is 21 nM.

B10: 6A3M IgG (antibody, V domains shown)
VH: EVQLQQSGAELVKPGASVKLSCKASGYTFTSYWMHWIKQRPGQGLEWIGVIDPSDSYTNYNQKFKGKATLTVDTSSSTAYMQLSSLTSEDSAVYYCATGGNGFFDYWGQGTTLTVSS
VL: DIVLTQSPASLAVSLGQRATISCRASESVDYDGDSYMNWYQQKPGQPPKLLIYAASNLESGIPARFSGSGSGTDFTLNIHPVEEEDAATYYCLQSNEAPWTFGGGTKLELK
notes: IgG converted from scFv
B10: the dissociation constant (Kd) in assay [4] worked out at 10 nM.

Broadly, the Kd is the equilibrium constant for the complex coming apart.
